To fix the notation:
B1: Mitochondrial import receptor subunit TOM70 (Homo sapiens), O94826 (parent)
chain: MAASKPVEAAVVAAAVPSSGSGVGGGGTAGPGTGGLPRWQLALAVGAPLLLGAGAIYLWSRQQRRREARGRGDASGLKRNSERKTPEGRASPAPGSGHPEGPGAHLDMNSLDRAQAAKNKGNKYFKAGKYEQAIQCYTEAISLCPTEKNVDLSTFYQNRAAAFEQLQKWKEVAQDCTKAVELNPKYVKALFRRAKAHEKLDNKKECLEDVTAVCILEGFQNQQSMLLADKVLKLLGKEKAKEKYKNREPLMPSPQFIKSYFSSFTDDIISQPMLKGEKSDEDKDKEGEALEVKENSGYLKAKQYMEEENYDKIISECSKEIDAEGKYMAEALLLRATFYLLIGNANAAKPDLDKVISLKEANVKLRANALIKRGSMYMQQQQPLLSTQDFNMAADIDPQNADVYHHRGQLKILLDQVEEAVADFDECIRLRPESALAQAQKCFALYRQAYTGNNSSQIQAAMKGFEEVIKKFPRCAEGYALYAQALTDQQQFGKADEMYDKCIDLEPDNATTYVHKGLLQLQWKQDLDRGLELISKAIEIDNKCDFAYETMGTIEVQRGNMEKAIDMFNKAINLAKSEMEMAHLYSLCDAAHAQTEVAKKYGLKPPTL

From IntAct's records for PubMed 34502139 come the findings set out here.

The variants in the first assay derive from B1. The settings on record: with orf9b_sars2 orf9b.
For R192A, the “effect of a mutation on the interaction” value is on record as “decreasing interaction strength”.

A further assay covers variants of B1. The conditions noted are these: with orf9b_sars2 orf9b. The source holds these as a separate data set.
As to E477A, the “effect of a mutation on the interaction” value is given as “decreasing interaction strength”.
